Measurements reported in the DeepSol protein solubility set.

Experiment: soluble on expression in E. coli; label from the status in PepcDB or PDB records

Sequence | soluble on expression in E. coli
MSLQSSVKTERQYLSGRGCDDMVQWDFMCTGGNNSGKWTKIGVPSCWELQGFGTYQYGMKFYGKAFPEGVADEQGLYKYEFELPAEWNGKQIELVFEGSMTDTQVKINGRKAGSMHQGAFYRFIYNVSDRVFFGSKKKNVLEVTVSKESANAGVNLAERRADYWNFGGIFRPVFIVAKPAQNIDRLVIDAKADGNFYADCFLNMAVEGARVHTVITDAKGKKVAENTSDVRTGSDHASINFAVKSPELWTAETPAMYQATFTLLDKAGKTLHVENQKFGFRTIETRESDGLYINGRRVMIKGVNRHSFRPESGRTLSKAKNIEDVLLIKSMNMNAVRLSHYPADPEFFEACDSLGLYVMDELSGWHGKHETINGQKLVKEMITRDVNHPCIIWWSNGNEKGWNTELDGEFHKYDPQKRPVLHPQGNFSGYETMHYRSYGESQNYMRLPEIFMPTEFLHGLYDGGHGAGLYDYWEMMRKHPRCAGGFLWVLADEGVKRVDMNGFIDNCGNYGADGIVGPHHEKEGSYFTIKQVWCPIQIMTDSLDSQFDGKLKIENRYDFLNANTCRFTYKYVQLPSVTDKGGMKVMKQGEVNCPDIPAHGAGTLTIPAAVKGANALMLTVTDKQGNDLFTWSYKLDDVAGLQQVSAGNKPSYKETADALTVDAEGRTFTFSQKDGQLKGVKVGSRIISLANGPRFIAAKRSDRSMDQFYNHDDKEAEKKKTQYTTFDDAGRFTGFTVREEGNNVVVTANYKLGCFDQAVWTIAPDGTAAIDFTYNFSGVVDLMGVMFDYPEDKVLSKRWVGDGPYRVWQNRLHGPQLGVWENEYNDPIPAESFTYPEFKGYFANVQWMTLKTQEGTISICNRTPQNYVGVYQPRDGRDGLLYTFPATGISLMKVIPPVRNKVNTTDLIGPSSQAFWADGAYGGGITLKFEEGHHHHHH | soluble
MGSDKIHHHHHHMRIILYLGKGGVGKTTVSASTATAIARSGKRVLIMSTDVAHSLADAFGVELSSTPVEVEKNLFAMEVNILAEIRENWTELYSYFSSILMHDGTNEIVAEELAIVPGMEEMISLRYIWKAAKSGKYDAVVVDAAPTGETMRLLGMPESYGWYSEKIGGWHSKAIGFAAPLLSRFMPKKNIFKLMPEVNEHMKELHGMLQDKSITTFRVVLNPENMVIKEALRVQTYLNLFGYKLDAAVVNKVLPSNSSDPYLQALIDQQAKYLRVIDNCFYPVPIFRAMQSSKEVISTDRLYDLSQELFSGRNPMEVLYSNDKTQTLEKINGKYVLSLYLPNVEVDKLAVNIKGDELLVDINNFRKSIVLPNVLVGRKTEGADFEQGTLNITFAN | not soluble
MSDKLTEKTVKLDTPIMRGKTEITEIVLRKPQSGALRGTRLQAIMDMDVGAMMTVIPRISTPTLTAQEMAELDPADLTALSVEVVTFLLKKSVLAGLPTA | not soluble
NEVDDMDTSDTQWGWFYLAECGKWHMFQPDTNSQCSVSSEDIEKSFKTNPCGSISFTTSKFSYKIDFAEMKQMNLTTGKQRLIKRAPFS | soluble
MELWLVRHGETLWNREGRLLGWTDLPLTAEGEAQARRLKGALPSLPAFSSDLLRARRTAELAGFSPRLYPELREIHFGALEGALWETMDPRYKEALLRFQGFHPPGGESLSAFQERVFRFLEGLKAPAVLFTHGGVVRAVLRALGEDGLVPPGSAVAVDWPRRVLVRLALDGEEATG | soluble
MGHHHHHHSHMINVDPPTGNYPATGGNSTHNITSESDSRLAFKVKSSNNEHYRVRPVYGFVDAKGKSKLDINRLPGPPKEDKIVIQYAEVPAEETDPMAPFKAGAQQGEIIVKLIAA | soluble
MSILHTVNKSPFERNSLESCLKFATEGASVLLFEDGIYAALAGTRVESQVTEALGKLKLYVLGPDLKARGFSDERVIPGISVVDYAGFVDLTTECDTVQAWL | soluble
KENGKRTEVKIGAKTSVMKEKDGKLFTGKANKETNKVDGANATEDADEGKGLVTAKDVIDAVNKTGWRIKTTDANGQNGDFATVASGTNVTFASGNGTTATVTNGTDGITVKYDAK | soluble
MTDNNTALKKAGLKVTLPRLKILEVLQEPDNHHVSAEDLYKRLIDMGEEIGLATVYRVLNQFDDAGIVTRHNFEGGKSVFELTQQHHHDHLICLDCGKVIEFSDDSIEARQREIAAKHGIRLTNHSLYLYGHCAEGDCREDEHAHEGK | soluble
MSLRAKVTTKKYSVCEAPKVSEEELLSALVDRHKGKVQFIDFWATWCGGCRRTIKEYEPIKKELGENVAFVYLTGPSSIEKTWKILIQDIVGEHYWLNEKQWGYLWKHFQMKGLPMYLVIDKQGNIVKRFTHVTRKELEELLKQEINKEGHHHHHH | soluble
DYKDDDDKLAAAQYPVVNTNYGKIRGLRTPLPNEILGPVEQYLGVPYASPPTGERRFQPPEPPSSWTGIRNTTQFAAVCPQHLDERSLLHDMLPIWFTANLDTLMTYVQDQNEDCLYLNIYVPTEDDIHDQNSKKPVMVYIHGGSYMEGTGNMIDGSILASYGNVIVITINYRLGILGFLSTGDQAAKGNYGLLDQIQALRWIEENVGAFGGDPKRVTIFGSGAGASCVSLLTLSHYSEGLFQKAIIQSGTALSSWAVNYQPAKYTRILADKVGCNMLDTTDMVECLRNKNYKELIQQTITPATYHIAFGPVIDGDVIPDDPQILMEQGEFLNYDIMLGVNQGEGLKFVDGIVDNEDGVTPNDFDFSVSNFVDNLYGYPEGKDTLRETIKFMYTDWADKENPETRRKTLVALFTDHQWVAPAVATADLHAQYGSPTYFYAFYHHCQSEMKPSWADSAHGDEVPYVFGIPMIGPTELFSCNFSKNDVMLSAVVMTYWTNFAKTGDPNQPVPQDTKFIHTKPNRFEEVAWSRYNPKDQLYLHIGLKPRVRDHYRATKVAFWLELVPHLHNLNEIFQYVSTTTKVPPPDMT | soluble
MGSDKIHHHHHHMAKINLIIAETDGAYLKGLVNYISSNFEDTFRITCFTNREYLEKYISSGRISDILLIKTDMFYEGLMKNSIKSIAILSEGGNMDEFNGLPVVKKYQPGEKLCREILNIYYNNNPEVAPCKEVKKQEGSIITLYSPVGGIGKSTIAIEMAKKLSDSNKKVLYLNLEDLQSTLVFFECSTSKNMSDFLYFIKERDENFKEVLKDIVLKDEESGINYFAPVDSVLDIEDLKVDDVKFMLQKLIEVNMYNYIIIDLSSTFNINYKTIFEMSSKIIVPIGQDKLSSVKLQNFLKQLDNLENFSFIQNKYKDNLETIIPHVLLREKKPIIQKIYYDEALESVSSLIYLKNRASTFLRCIDELIMKLL | not soluble
MTHEYQDLITIFNDTFLEQFNTTLELGGDEPIYLPADDEHPHHRIIFARGFYASALHEIAHWCVAGPERRLMEDFGYWYEPDGRTEAVQAEFEKVEIRPQAYEWILATSAGFPFTVSCDNLHGDFEPDRLGFMQKVHKEVLGILEAGLPPRVKMLSDALRAFYQTKPLEASDFSVK | not soluble
MSAVNRAAVEAVLRQYTDPYLNQDPVSAGCVRDIEVQGDRVTVRMELGYAAGLFKSGWAQMLQLAIEGLDGVSSAKVEISSVIAAHKAQAQIPGLANVKNVVAVASGKGGVGKSTTAANLALALAREGAKVGILDADIYGPSQGIMFGIAEGTRPKIKDQKWFVPIESHGVEVMSMAFLTDDNTPMVWRGPMVSGALLQLVTQTDWGNLDYLVIDMPPGTGDIQLTLAQKVPVAGAVIVTTPQDLALLDARKGVEMFRKVNIPVLGVVENMAVHICSNCGHAEHLFGEGGGEKLASQYDVELLASLPLSMLIREQADGGKPTVIAEPESQIAMVYQELARHVGARIVLQEAAAPAMPNITISDDLEHHHHHH | not soluble
MGSDKIHHHHHHMKRENLHQPFEISFSELAESLLKEHEHTFFELVYILSGTGIQWINNNMFPYHDGHLFMITPGDTHSFEIHTTTKFVDIKFNDIYIHSSVFGAENIQRLEFILQHANHQPGCILRNKVDKLLVKPMIEAIIREYINRNLYSKEIITQIINTIIIVVARNIAMFLPEQVDECSEDKSLDILQYIQANIYKTGKIRAKDISQHFGISENYLGRYIKKHTNETMQQYILNYKLKLVENRLLHSQMRICEIVEELGFTDESHLNKFFKKYRGCSPSNFRKNNLK | not soluble
MRGSHHHHHHMDYASVAMAAAPTTTTTTNVSLRRQRHRKEKLLVLMGATGTGKSRLSIDLAAHFPLEVINSDKMQVYKGLDITTNKISVPDRGGVPHHLLGEVDPARGELTPADFRSLAGKAVSEITGRRKLPVLVGGSNSFIHALLVDRFDSSGPGVFEEGSHSVVSSELRYDCCFLWVDVSVKVLTDYLAKRVDDMLELGMFDELAEFYSPEDEDHDEDSATRTGLRKAIGVPEFDRYFEKFRPGDVEGEDPGRDRVRRGAFEEAVRAIKENTCHLAKRQIGKILRLKGAGWDLRRLDATESFRAAMTSDSGEKCTEIWEKQVLEPSVKIVSRFLDE | soluble
